Test results published in paper PMC12623983.

Target: ribosomes from HEK293 cells (80S ribosomes, empty ribosomes), P62750;P62906
Assay: co-sedimentation assay with immunoblot quantification
Settings: chain shown with the change, three independent replicates, read off a plot; for ratio to parent: NMT2 alone with ribosomes (no NAC), parent: est. 1.0; for response (normalized intensity): NMT2 with ribosomes in the presence of NAC, parent: est. 2.2

ratio to parent | response (normalized intensity) | Binder
0.27 | 0.3 | human NMT2 (N-myristoyltransferase 2), wild type, O60551 R306E; R324E; K327E (protein) MAEDSESAASQQSLELDDQDTCGIDGDNEEETEHAKGSPGGYLGAKKKKKKQKRKKEKPNSGGTKSDSASDSQEIKIQQPSKNPSVPMQKLQDIQRAMELLSACQGPARNIDEAAKHRYQFWDTQPVPKLDEVITSHGAIEPDKDNVRQEPYSLPQGFMWDTLDLSDAEVLKELYTLLNENYVEDDDNMFRFDYSPEFLLWALRPPGWLLQWHCGVRVSSNKKLVGFISAIPANIRIYDSVKKMVEINFLCVHKKLRSKRVAPVLIREITRRVNLEGIFQAVYTAGVVLPKPIATCRYWHRSLNPEKLVEVKFSHLSRNMTLQETMELYRLPDVTKTSGLRPMEPKDIKSVRELINTYLKQFHLAPVMDEEEVAHWFLPREHIIDTFVVESPNGKLTDFLSFYTLPSTVMHHPAHKSLKAAYSFYNIHTETPLLDLMSDALILAKSKGFDVFNALDLMENKTFLEKLKFGIGDGNLQYYLYNWRCPGTDSEKVGLVLQ
0.35 | 0.85 | human NMT2 (N-myristoyltransferase 2), wild type, O60551 R306E (protein) MAEDSESAASQQSLELDDQDTCGIDGDNEEETEHAKGSPGGYLGAKKKKKKQKRKKEKPNSGGTKSDSASDSQEIKIQQPSKNPSVPMQKLQDIQRAMELLSACQGPARNIDEAAKHRYQFWDTQPVPKLDEVITSHGAIEPDKDNVRQEPYSLPQGFMWDTLDLSDAEVLKELYTLLNENYVEDDDNMFRFDYSPEFLLWALRPPGWLLQWHCGVRVSSNKKLVGFISAIPANIRIYDSVKKMVEINFLCVHKKLRSKRVAPVLIREITRRVNLEGIFQAVYTAGVVLPKPIATCRYWHRSLNPEKLVEVKFSHLSRNMTLQRTMKLYRLPDVTKTSGLRPMEPKDIKSVRELINTYLKQFHLAPVMDEEEVAHWFLPREHIIDTFVVESPNGKLTDFLSFYTLPSTVMHHPAHKSLKAAYSFYNIHTETPLLDLMSDALILAKSKGFDVFNALDLMENKTFLEKLKFGIGDGNLQYYLYNWRCPGTDSEKVGLVLQ
0.32 | 0.45 | human NMT2 (N-myristoyltransferase 2), wild type, O60551 R324E; K327E (protein) MAEDSESAASQQSLELDDQDTCGIDGDNEEETEHAKGSPGGYLGAKKKKKKQKRKKEKPNSGGTKSDSASDSQEIKIQQPSKNPSVPMQKLQDIQRAMELLSACQGPARNIDEAAKHRYQFWDTQPVPKLDEVITSHGAIEPDKDNVRQEPYSLPQGFMWDTLDLSDAEVLKELYTLLNENYVEDDDNMFRFDYSPEFLLWALRPPGWLLQWHCGVRVSSNKKLVGFISAIPANIRIYDSVKKMVEINFLCVHKKLRSKRVAPVLIREITRRVNLEGIFQAVYTAGVVLPKPIATCRYWHRSLNPRKLVEVKFSHLSRNMTLQETMELYRLPDVTKTSGLRPMEPKDIKSVRELINTYLKQFHLAPVMDEEEVAHWFLPREHIIDTFVVESPNGKLTDFLSFYTLPSTVMHHPAHKSLKAAYSFYNIHTETPLLDLMSDALILAKSKGFDVFNALDLMENKTFLEKLKFGIGDGNLQYYLYNWRCPGTDSEKVGLVLQ
